Test results: publication PMC5120205

Columns and labels:
D1-10-N1 = assay: ELISA
D2-14-N1 = assay: ELISA
D3-03-N1 = assay: ELISA
D3-12-N1 = assay: ELISA
D3-23-N1 = assay: ELISA
D3-24-N1 = assay: ELISA
D2-14-N1 (human) = assay: SPR
Chain of D2-14-N1 (human) (heavy, as listed by the source): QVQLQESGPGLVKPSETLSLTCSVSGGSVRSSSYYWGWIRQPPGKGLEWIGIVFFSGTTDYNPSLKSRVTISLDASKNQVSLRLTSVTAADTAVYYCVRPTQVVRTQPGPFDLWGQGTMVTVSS

Kd (D2-14-N1 (human)) [pM]	Substance	percent of parent (D1-10-N1) [%]	percent of parent (D2-14-N1) [%]	percent of parent (D3-03-N1) [%]	percent of parent (D3-12-N1) [%]	percent of parent (D3-23-N1) [%]	percent of parent (D3-24-N1) [%]
	recombinant full-length IsdB (from UniProt Q2FHV2) Y165R	3	3	3	3	3	5
4 to 12	recombinant full-length IsdB (natural protein)						
